Results: the nanobody polyreactivity screen of Harvey et al. (2022)

Test: yeast display, Sf9 membrane polyspecificity reagent, FACS + sequencing; frameworks hold sequencing errors
Procedure, shortened: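 Galactose-induced (36–48 hours) yeast carrying a synthetic nanobody display library were exposed to 10% biotinylated, detergent-solubilized Sf9 membrane reagent at 4 °C for 1 hour. FACS followed streptavidin microbead enrichment, using low and high (top ~1%) gates for expression (anti-HA) and reagent binding (streptavidin). Colony PCR, MiSeq 2 × 250 sequencing and CDR-length filtering followed. Labels for polyreactivity reflect the gate of origin.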

Row | Sequence | polyreactivity (PSR sort gate)
1 | QVQLVESGGGLVQEGGSLRLSCAASGIIFGYNAMGWYRQAPGKERELVAAISRRGGTTYYADSVKGRLTISRDNSKNTVYLQMNSLKPEDTAVYYCAAQWSPTEHEYNYSGQGTQVTVSS | low polyreactivity
2 | QVQLVESGGGLVQEGGSLRLSCAASGIIFYYNAMGWYRQAPGKERELVARITWRAGSTYYADSVKGRFTISRDNAKNTVYLQMNSLKPEDTAVYYCNADHDGLGYYYWGQGTQVTVSS | high polyreactivity
3 | QVQLVESGGGLVQEGGSLRLSCAASGITFLQYAMGWYRQAPGKERELVAVISRGSRTYYADSVKGRFTISRDNAKNTVYLQMNCLQPDDTAVYYCAAVRGLALGYDYWGQGTQVTVSS | high polyreactivity
4 | QVQLVESGGGLVQEGGSLRLSCAASGLICQHNARVWSRHAPGKERELVAAISRSAGSSYYADSEKGRFTISRDNAKNTVYLQMNCLKPEDTAVFYCAKRPTPTTKDDTVRYGYWGQGSQVTVSS | low polyreactivity
5 | QVQLVESGGGLVQEGGSLRLSCAASGLIFYDNMGWYRQAPGKERELVAAISSSGGSTSYADSVKGRFTISRDNAKNTVYLQMNSLKPEDTAVYYCAADSYPAYLGFVGFDYWGQGTQVTVSS | low polyreactivity
6 | QVQLVESGGGLVQEGGSLRLSCAASGNTLRVYAMGRYRQAPGTERELVAAISSSGGSTYYADSVKGRFTISRDNAKNTVYLQMYSLKPEDTAVYYCAKDNGPWFAYDYWGQGTQVTVSS | low polyreactivity
7 | QVQLVESGGGLVQEGGSLRLSCAASGRIFATYVMGWYRQAPGKERELVAAISRRGSSTYYADSVKGRFTISRDNAKNTVYLQMNSLKPEDTAVYYCAAVHKVGWSRHYDYWGLGTQVTVSS | high polyreactivity
8 | QVQLVESGGGLVQEGGSLRLSCAASGRIFTPYAMGWYRQAPGKERELVAVIRDGSTYYADSVKGRFTISRDNAKNTVYLQMNSLKPEDTAVYYCRYDIWVWWSGAYDYWGQGTQVTVSS | low polyreactivity
9 | QVQLVESGGGLVQEGGSLRLSCAASGRLFGTYTMGWYRQAPGKERELVAAISWSGGNTYYADSVKGRFTISRDNAKNTVYLQMNSLKPEDTAVYYCNALYYRPPKWYGYWGQGTQVTVSS | high polyreactivity
10 | QVQLVESGGGLVQEGGSLRLSCAASGRTFAHYAMGWYKQAPGKERELVAAISWSGGSTYYADSVKGRFTISRDNPKNTVYLQMNILKPEDTGVYYCNTLGGTEYGYWGPGTQVTVSS | high polyreactivity
11 | QVQLVESGGGLVQEGGSLRLSCAASGRTFGVYAMGWYRQAPGKESTYYADSVKGRFTISRDNAKNTVYLQMNSQKQEDTAVYYCAADEWYYIDPSDDYWGQGSQVTVSS | low polyreactivity
12 | QVQLVESGGGLVQEGGSLRLSCAASGRTFWQNAMGWYRQAAGKERELVAAIRIGGSTNYAVSVKGRFTISRDNAKNTVYLQMNSLKPEYTAFYYCAARRGYYSRNDYWGQVTQVTVSS | high polyreactivity
13 | QVQLVESGGGLVQEGGSLRLSCAASGRTLRYNDMGWYRQAPGKERELVAAISTRGGSTYYADSVKGRFTISRDNAKNTVYLQMYSLKPEDTAVYYCAVTPRIPGHFEDYYWGQGTQVTVSS | low polyreactivity
14 | QVQLVESGGGLVQEGGSLRLSCAASGSIFFYYAMGWYRQAPGKERELVAAITSSGDSTYYADSVKGRFTISRDNAKNTVYLQMNSLKPVETAVYYCAALYIGYTGYYYWGQGTQVTVSS | low polyreactivity
15 | QVQLVESGGGLVQEGGSLRLSCAASGSIFLFYAMGWYRPAPGKERELVARITSSGGTTYYADSVKGRFTISRDNAKNTVYLQMNSLKPEDTAVYYCAAAYIRRSPYYYWGQGTQVTVSS | high polyreactivity
16 | QVQLVESGGGLVQEGGSLRLSCAASGSIFRKYAMGWYRQAPGKERELVAVITTDGSTNYADSVKGRFTISRDNAKNSVYLQMNSMNPEDTAVYYCNAVRSSIGTDIDYWGQGTQVTGSS | low polyreactivity
17 | QVQLVESGGGLVQEGGSLRLSCAASGSIFSIYAMGWYRQAPGKERELVAAIDSGTSTTYADSVKGRFTISRDNAKNTVYLQMNSLKPEDTAVYYCAAALYSDVAAVATYGYYWGQGTQVTVSS | low polyreactivity
18 | QVQLVESGGGLVQEGGSLRLSCAASGSIFYRNAMGWYRQAPGKERELVAAISSDGSTNYADSVKGRFTISRDNAKNTVYLHMNSLKPEDTAVYYCAAPWTQILDYWGQGTQVTVSS | low polyreactivity
19 | QVQLVESGGGLVQEGGSLRLSCAASGSTFPGNAMGWYRQAPGKERELVAAIRDRGTSTYYADSVKGRFTISRDNAKNTVYLQMNSLKPEDTAVYYCAAASRVAKGRWRLYDYWGQGTQVTVSS | high polyreactivity
20 | QVQLVESGGGLVQEGGSLRLSCAASGSTFRHNAMGRYRQAPGKERELVAVITDGASTNYADSVKGRFTISRDNAKNTVYLQMNSLKPEDTAVYYCAAYHRGYYTGREYYYWGQGTQVTVSS | low polyreactivity
21 | QVQLVESGGGLVQEGGSLRLSCAASGSTFYIYGMGWYRQAPGKERELVARISSGGSTYADSVKGRFTISRDNAKNTVYLQMYSLKPEDTAVYYCAAAAARTYRRYRYEGYFYWGQGTQVTVSS | high polyreactivity
22 | QVQLVESGGGLVQEGGSLRLTCAASGIIFTINAMGWYRQAPGKERELVAAIYWGTGTTYYADSVKGRFTISRDNAKNTVYLQMNSLKPEDTAVYYCAADGYDTYGYWGQGTQVTVSS | low polyreactivity

Row | Sequence | polyreactivity (PSR sort gate)
23 | QVQLVESGGGLVQEGGSLRVSCAASGRIFANNAMAGYRQAPGKERELLAAISWSGGNTYYADSVKGRFTISRDNAKNTVYVQMNSLKPDDTAVYYCGAGSPRYSNNYVSYKGWDYSCGQGTQVTVSS | high polyreactivity
24 | QVQLVESGGGLVQEGRSLRLSCAASGRIFCFNVMGWYRQAPGKERELVATISGRTGSTYYADSVKGRFTISRDNAKNTVYLQMNSLKPEVTAVYYCNAVRTVNDYHYDYWGQVTQVTVSS | high polyreactivity
25 | QVQLVESGGGLVQGGGSLRLSCAASGINFSVYPMGWYRQAPGKERELVAAISVGGGRTYYAYSVKGRFTISRDYAKNTFYLEMNSLKAEDTAVYYCDARLGTRQYKMDYWGQGTQVTVSS | high polyreactivity
26 | QVQLVESGGGLVQGGGSLRLSCAASGLIFARNAMGWYRQAPGKERELVAAISKRGGSTFYADSVKGRFTISRDNAKKTVYLQMNSLKPEDTAVYYCHARSSETWHGDYWGQGTQLTVSS | high polyreactivity
27 | QVQLVESGGGLVQGGGSLRLSCAASGRTFQRYAMGWYRQAPGKERELVAAISNRGGSTYYADSVKGRFTISRDNAKNTVYLQMNSLKPEDTAVYYCRTSTPRRVSGNYWGQGTQVTVSS | high polyreactivity
28 | QVQLVESGGGLVQGGGSLRLSCAASGSTFSRYAMGWYRPAPGKERELVAAITGTGGRTYYADSVKGRFTISRANAKNTVYLQRNSLKPEDTAVYYCAAQRWTVKYNYWGQGTQVTVSS | high polyreactivity
29 | QVQLVESGGGLVQGGGSLRLSCAASGSTIPSYAMGCYRQAPGKERELVASITYSDGTTRYADSVKGRFTISRDHAKNPVYLQMNSLIPEDTELYSCNAVYYREGMDYWGQGTQVTVSS | low polyreactivity
30 | QVQLVESGGGLVQGGGSLRLSCDASGLTFPSNAMRWYRQATAKERELVASINRRGTSTFYADSVKGRFTISRDNAKNTFYLQMNSMKPEDTAVYYCNAYEGAAIRSTGRYDYWGHGTQVTVSS | low polyreactivity
31 | QVQLVESGGGLVQGGGSLRLSFAGSGFTFGRYLMGWYSQAPGKERELVAAISRSGGSTHYADSVKGRFTISRDYAMNHFYLQMNSLKPEDTAVYYCAAASPRWPGQGDYWGQGTQVTVSS | high polyreactivity
32 | QVQLVESGGGLVQPGGRLRISCAASGRIFGRYAMGWYRLEPGKERELVAAITSSGGNTYYADSVKGRFTISRDNAKNTVYLQMNSMKPEDTAVYYCIARSARSRRQSDYWGQGTHVTVSS | high polyreactivity
33 | QVQLVESGGGLVQPGGRLRLSCAASGFTFHDYAMGWYRPAPGKERELVAAITKSGGRTYYADSVKGRFTISRDNAKNTVYLQMNSLKPEDTAVYFCAAASYRSQYDYYYWGQGTQVTVSS | high polyreactivity
34 | QVQLVESGGGLVQPGGSLRLSCAASGIIFGYYAMGWYRQAPGKERVLDAAISWSGGSTYYADSVKGRVTISRDNAKNTVYFQMNSLKPEDTAVYYCAAVVRRKSGNDTWRYNYWGQGTQVTVSS | high polyreactivity
35 | QVQLVESGGGLVQPGGSLRLSCAASGLTFDDNAKGWYRHAPGKERELVAAISKSGDGTYYADSVKGRFTISRDNAKNTVYLHMNSLKPEDTAVYYCNADAKYWRYVYWWFGDDYWGQGTQVTVSS | low polyreactivity
36 | QVQLVESGGGLVQPGGSLRLSCAASGLTFPWYAMGWYRQAPGQERELVAAITNSDGNTFADSVKGRFTISRDNAKNSVYLQMNSLKAEDTAVYSCATDTRSLAYYYWGQGTQVTVSS | low polyreactivity
37 | QVQLVESGGGLVQPGGSLRLSCAASGNTFANYAMGWYRQAPGKERELVAAITSNGGSTYYADSVKGRFTISRDNAKNTVFLQMNSLKPEDTAVYYCAADAAYYSGYDYWGQGTQVTVSS | low polyreactivity
38 | QVQLVESGGGLVQPGGSLRLSCAASGRISSYYAMGWYRQAPGKERELVAAISNAGSTKYADSVKGRFTISRDNAKNTVYLQMNRLKPEDTAVYYCNARSYRWSWVLRYDYWGKGTQVTVSS | high polyreactivity
39 | QVQLVESGGGLVQPGGSLRLSCAASGRTFYEYAMGWYRPAPGKERELVAGITSGGSTNYADSVKGRFTISRDNAKNTVYLQMNSLKPEDTAVYYCAASYWGYEYDYWGQGTQVTVSS | low polyreactivity
40 | QVQLVESGGGLVQPGGSLRLSCAASGRTIERNTMGWYRQAPGKERELFAAISYDGGSTYYADSVKGRFTISRDNAKNTVYLQMNSLKPEDTAVYYCNAGGSEIYRSPFDYWGQGTEVTVSS | low polyreactivity
41 | QVQLVESGGGLVQPGGSLRLSCAASGRTYRWYAMGWYRQAPGKERELVASITSGVSTYYADSVTGRCTISRDNAKNTVNLQMNSLKPEDTAVYYCAAGYRFTTYLVYNYWGQGTHVTVSS | high polyreactivity
42 | QVQLVESGGGLVQPGGSLRLSCAASGSIFRVYAMGWYRQAPGKERELVAAISRGGNTNYADSVKGRFTISRDNAKNTVYLQKNSLKPEDTAVYYCNARYYSWDWWIGYDYWGQGTLVTVSS | high polyreactivity
43 | QVQLVESGGGLVQPGGSLRLSCAASGSIFRYYAMGWYRQAPGKERELVATIRSGGSTTYADSVKGRFTISRDNAKNTVYLQMNSLKPEDTAVYYCAATYGWRFTTFPSGYASDYYWGQGTQVTVSS | high polyreactivity
